Laboratory results reported in publication PMC6195595.

Legend:
[1] = target: Kj12C N-terminal docking domain (Xenorhabdus stockiae KJ12.1); assay: ITC; 50 µM NDD (or Kj12C construct) in the cell titrated with 1 mM CDD peptide; 20 °C; 50 mM sodium phosphate pH 6.5, 100 mM NaCl; one site binding model; three independent titrations
[2] = target: Kj12C-^NDD (N-terminal docking domain of Kj12C) (Xenorhabdus stockiae KJ12.1); assay: ITC; 50 µM ^NDD protein in the cell titrated with 1 mM ^CDD peptide or variant, 20 °C, 50 mM sodium phosphate pH 6.5, 100 mM NaCl, one site binding model, three independent titrations
[3] = target: Kj12B N-terminal docking domain (Xenorhabdus stockiae KJ12.1); assay: ITC; 50 µM NDD (or Kj12C construct) in the cell titrated with 1 mM CDD peptide; 20 °C; 50 mM sodium phosphate pH 6.5, 100 mM NaCl; one site binding model; three independent titrations
[4] = target: Kj12B-NDD K26Q, K28E (Xenorhabdus stockiae KJ12.1); assay: as above
[5] = target: Kj12C-NDD-Cterm (full-length Kj12C module) (Xenorhabdus stockiae KJ12.1); assay: as above
[6] = target: Kj12C-NDD Q26K, E28A (Xenorhabdus stockiae KJ12.1); assay: as above
[7] = target: Kj12B-NDD K28E (Xenorhabdus stockiae KJ12.1); assay: as above
[8] = target: Kj12B-NDD K24R, K26Q, K28E (Xenorhabdus stockiae KJ12.1); assay: as above
[9] = target: Kj12B-^NDD (N-terminal docking domain of Kj12B) (Xenorhabdus stockiae KJ12.1); assay: ITC; 50 µM ^NDD protein in the cell titrated with 1 mM ^CDD peptide or variant, 20 °C, 50 mM sodium phosphate pH 6.5, 100 mM NaCl, one site binding model, three independent titrations
[10] = target: Kj12A-^NDD (N-terminal docking domain of Kj12A) (Xenorhabdus stockiae KJ12.1); assay: as above
[11] = target: Kj12B thiolation domain with CDD (Xenorhabdus stockiae KJ12.1); assay: ITC; Kj12B T-domain-CDD in the cell (given as 50 mM) titrated with 1 mM Kj12C-NDD in the syringe; 20 °C; 50 mM sodium phosphate pH 6.5, 100 mM NaCl; one site binding model

Kj12A-CDDshort E1169R, H1171E peptide
stoichiometry N [1]: 1.3 sites

Kj12A-^CDD peptide (C-terminal docking domain of Kj12A)
Kd [2]: 100 µM

Kj12A-^CDD peptide with E1169R and H1171E (double mutant)
Kd [2]: 3.5 µM

Kj12B-CDDshort R1565E peptide
stoichiometry N [3]: 1.15 sites

Kj12B-CDDshort peptide
Kd [4]: 20.4 µM | stoichiometry N [4]: 1 sites | Kd [5]: 8 µM | stoichiometry N [5]: 1 sites | Kd [6]: 80 µM | stoichiometry N [6]: 1 sites | Kd [7]: 33 µM | stoichiometry N [7]: 1 sites | stoichiometry N [8]: 0.97 sites

Kj12B-^CDD peptide (C-terminal docking domain of Kj12B)
Kd [9]: 62 µM | Kd [10]: 8 µM | Kd [2]: 8 µM

Kj12B-^CDD peptide R1565E
Kd [9]: 13 µM

Kj12B-^CDD_(short) peptide
Kd [2]: 15 µM

Kj12C N-terminal docking domain (domain or fragment)
Kd [11]: 19 µM | stoichiometry N [11]: 1.2 sites
